This is an account of results in PMC3583667 (Molecular Biology of the Cell, 2013).

What all share (experiment): co-IP
Experiment [1] addresses T1, EGFP–Rab11-FIP1C (UniProt Q6WKZ4-3 1-649).
T1 sequence (looked up): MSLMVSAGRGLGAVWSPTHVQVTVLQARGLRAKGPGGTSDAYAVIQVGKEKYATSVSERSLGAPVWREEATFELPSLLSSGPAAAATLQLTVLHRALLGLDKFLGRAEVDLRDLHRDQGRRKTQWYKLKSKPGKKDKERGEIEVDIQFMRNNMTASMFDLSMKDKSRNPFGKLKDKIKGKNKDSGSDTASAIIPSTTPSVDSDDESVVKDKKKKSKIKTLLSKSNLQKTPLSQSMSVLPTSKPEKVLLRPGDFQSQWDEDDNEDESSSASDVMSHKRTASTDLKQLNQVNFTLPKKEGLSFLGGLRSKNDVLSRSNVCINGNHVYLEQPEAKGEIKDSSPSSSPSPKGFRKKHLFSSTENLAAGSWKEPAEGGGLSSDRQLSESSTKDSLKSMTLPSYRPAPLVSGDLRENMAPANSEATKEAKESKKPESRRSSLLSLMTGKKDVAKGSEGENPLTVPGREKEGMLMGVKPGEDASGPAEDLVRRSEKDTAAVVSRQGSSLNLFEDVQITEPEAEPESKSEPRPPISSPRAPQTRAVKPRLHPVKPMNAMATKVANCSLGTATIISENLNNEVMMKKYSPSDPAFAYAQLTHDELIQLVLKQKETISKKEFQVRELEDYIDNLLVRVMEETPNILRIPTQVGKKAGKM

For experiment [2], the target named is T2, EGFP–Rab11-FIP1A (UniProt Q6WKZ4-1 1-612).
T2 sequence (looked up): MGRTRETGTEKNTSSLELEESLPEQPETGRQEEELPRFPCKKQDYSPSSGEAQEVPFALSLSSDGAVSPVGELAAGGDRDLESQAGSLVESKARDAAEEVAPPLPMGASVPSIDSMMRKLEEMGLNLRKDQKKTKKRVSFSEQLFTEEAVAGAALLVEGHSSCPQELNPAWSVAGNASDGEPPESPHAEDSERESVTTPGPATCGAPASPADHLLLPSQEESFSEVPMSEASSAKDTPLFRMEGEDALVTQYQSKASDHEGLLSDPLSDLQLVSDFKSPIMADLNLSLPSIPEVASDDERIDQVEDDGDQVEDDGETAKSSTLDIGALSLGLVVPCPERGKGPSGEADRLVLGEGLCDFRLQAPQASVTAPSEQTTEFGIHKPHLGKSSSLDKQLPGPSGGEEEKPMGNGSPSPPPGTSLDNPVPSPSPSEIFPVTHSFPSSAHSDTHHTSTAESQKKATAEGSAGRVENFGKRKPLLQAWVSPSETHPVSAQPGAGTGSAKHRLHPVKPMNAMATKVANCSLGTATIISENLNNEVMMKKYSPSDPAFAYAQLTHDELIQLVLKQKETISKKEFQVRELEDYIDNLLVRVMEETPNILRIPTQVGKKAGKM

For experiment [3], the target named is T3, EGFP–Rab11-FIP1B (UniProt Q6WKZ4-4 1-1283).
T3 sequence (looked up): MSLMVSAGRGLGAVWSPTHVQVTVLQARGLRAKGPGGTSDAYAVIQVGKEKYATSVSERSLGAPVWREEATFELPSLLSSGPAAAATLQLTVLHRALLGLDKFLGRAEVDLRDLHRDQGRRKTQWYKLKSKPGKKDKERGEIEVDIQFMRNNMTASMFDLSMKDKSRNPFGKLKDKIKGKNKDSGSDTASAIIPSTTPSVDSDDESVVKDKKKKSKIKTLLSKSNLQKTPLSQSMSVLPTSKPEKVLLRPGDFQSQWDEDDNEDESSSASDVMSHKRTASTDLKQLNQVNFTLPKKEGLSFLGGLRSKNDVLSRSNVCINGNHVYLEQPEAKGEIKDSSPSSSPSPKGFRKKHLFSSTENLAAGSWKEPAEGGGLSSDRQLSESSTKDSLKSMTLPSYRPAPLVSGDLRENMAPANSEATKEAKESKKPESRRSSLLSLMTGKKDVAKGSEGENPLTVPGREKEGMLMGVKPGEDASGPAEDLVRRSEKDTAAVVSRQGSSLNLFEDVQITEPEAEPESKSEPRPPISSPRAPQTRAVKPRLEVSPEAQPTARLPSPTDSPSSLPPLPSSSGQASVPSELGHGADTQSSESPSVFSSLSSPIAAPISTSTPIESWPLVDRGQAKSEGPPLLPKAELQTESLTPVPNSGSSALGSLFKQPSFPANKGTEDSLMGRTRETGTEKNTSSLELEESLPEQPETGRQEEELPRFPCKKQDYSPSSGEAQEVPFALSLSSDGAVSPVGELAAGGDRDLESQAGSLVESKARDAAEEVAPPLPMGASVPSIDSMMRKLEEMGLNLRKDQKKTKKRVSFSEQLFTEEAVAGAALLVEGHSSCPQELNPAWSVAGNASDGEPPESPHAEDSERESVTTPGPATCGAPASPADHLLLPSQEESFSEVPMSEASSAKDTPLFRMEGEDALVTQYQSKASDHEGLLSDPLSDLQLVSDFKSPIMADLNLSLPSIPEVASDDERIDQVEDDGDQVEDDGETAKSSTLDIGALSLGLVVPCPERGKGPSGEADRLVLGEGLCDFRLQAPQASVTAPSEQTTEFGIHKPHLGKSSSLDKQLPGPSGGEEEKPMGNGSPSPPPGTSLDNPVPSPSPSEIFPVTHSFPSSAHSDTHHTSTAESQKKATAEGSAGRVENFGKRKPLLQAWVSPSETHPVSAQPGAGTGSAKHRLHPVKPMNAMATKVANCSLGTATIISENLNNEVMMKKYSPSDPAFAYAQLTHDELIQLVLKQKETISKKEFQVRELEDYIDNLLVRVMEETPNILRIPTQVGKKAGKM

For experiment [4], the target named is T1, EGFP–Rab11-FIP1C. This is another data set of the same source.
For experiment [5], the target named is T2, EGFP–Rab11-FIP1A. This is another data set of the same source.
Experiment [6] deals with T3, EGFP–Rab11-FIP1B. The source holds these as a separate data set.

Where two headings read alike, the source gives them in different places.

B1: mCherry–Rab11-FIP1A (natural protein, UniProt Q6WKZ4-1 1-612, looked up)
chain: T2 sequence (looked up)
B1: the “percentage of total FIP1A recovered on the beads” value in experiment [1] is 11.6%; in experiment [2], 18.6%; in experiment [3] it was 13.4%; in experiment [4] it was 15.2%; in experiment [5], 15.2%; in experiment [6] it was 11.8%.
